B1: Myosin-binding protein C, cardiac-type (Mus musculus), O70468 (parent)
chain: MPEPGKKPVSAFNKKPRSAEVTAGSAAVFEAETERSGVMVRWQRDGSDITANDKYGLAAEGKRHTLTVRDASPDDQGSYAVIAGSSKVKFDLKVTEPAPPEKAESEVAPGAPEEVPAPATELEESVSSPEGSVSVTQDGSAAEHQGAPDDPIGLFLMRPQDGEVTVGGSIVFSARVAGASLLKPPVVKWFKGKWVDLSSKVGQHLQLHDSYDRASKVYLFELHITDAQTTSAGGYRCEVSTKDKFDSCNFNLTVHEAIGSGDLDLRSAFRRTSLAGAGRRTSDSHEDAGTPDFSSLLKKRDSFRRDSKLEAPAEEDVWEILRQAPPSEYERIAFQHGVEACHRPLKRLKGMKQDEKKSTAFQKKLEPAYQVNKGHKIRLTVELADPDAEVKWLKNGQEIQMSGSKYIFESVGAKRTLTISQCSLADDAAYQCVVGGEKCSTELFVKEPPVLITRSLEDQLVMVGQRVEFECEVSEEGAQVKWLKDGVELTREETFKYRFKKDGRKHHLIINEATLEDAGHYAVRTSGGQSLAELIVQEKKLEVYQSIADLAVGAKDQAVFKCEVSDENVRGVWLKNGKELVPDNRIKVSHIGRVHKLTIDDVTPADEADYSFVPEGFACNLSAKLHFMEVKIDFVPRQEPPKIHLDCPGSTPDTIVVVTGNKLRLDVPISGDPAPTVVWQKTVTQGKKASAGPHPDAPEDAGADEEWVFDKKLLCETEGRVRVETTKDRSVFTVEGAEKEDEGVYTVTVKNPVGEDQVNLTVKVIDVPDAPAAPKISNVGEDSCTVQWEPPAYDGGQPVLGYILERKKKKSYRWMRLNFDLLRELSHEARRMIEGVAYEMRVYAVNAVGMSRPSPASQPFMPIGPPGEPTHLAVEDVSDTTVSLKWRPPERVGAGGLDGYSVEYCQEGCSEWTPALQGLTERRSMLVKDLPTGARLLFRVRAHNVAGPGGPIVTKEPVTVQEILQRPRLQLPRHLRQTIQKKVGEPVNLLIPFQGKPRPQVTWTKEGQPLAGEEVSIRNSPTDTILFIRAARRTHSGTYQVTVRIENMEDKATLILQIVDKPSPPQDIRIVETWGFNVALEWKPPQDDGNTEIWGYTVQKADKKTMEWFTVLEHYRRTHCVVSELIIGNGYYFRVFSHNMVGSSDKAAATKEPVFIPRPGITYEPPKYKALDFSEAPSFTQPLANRSIIAGYNAILCCAVRGSPKPKISWFKNGLDLGEDARFRMFCKQGVLTLEIRKPCPYDGGVYVCRATNLQGEAQCECRLEVRVPQ

Variants of B1 are the subject of the first test. The conditions noted are these: with actc_mouse Actc1, P68033.
As to K188A;K191A;K193A, the “effect of a mutation on the interaction” value is “disrupting interaction strength”.
R304A;R305A: the “effect of a mutation on the interaction” value is reported as “disrupting interaction strength”.
R279A;R280A: the “effect of a mutation on the interaction” value is listed as “disrupting interaction strength”.
On the same count and under the same terms, with R279A;R280A;T281A the entry was “disrupting interaction strength”.

The variants in the next test derive from B1. The conditions noted are these: with myh6_mouse Myh6, Q02566.
Chain of myh6_mouse Myh6, Q02566 (Q02566 whole entry): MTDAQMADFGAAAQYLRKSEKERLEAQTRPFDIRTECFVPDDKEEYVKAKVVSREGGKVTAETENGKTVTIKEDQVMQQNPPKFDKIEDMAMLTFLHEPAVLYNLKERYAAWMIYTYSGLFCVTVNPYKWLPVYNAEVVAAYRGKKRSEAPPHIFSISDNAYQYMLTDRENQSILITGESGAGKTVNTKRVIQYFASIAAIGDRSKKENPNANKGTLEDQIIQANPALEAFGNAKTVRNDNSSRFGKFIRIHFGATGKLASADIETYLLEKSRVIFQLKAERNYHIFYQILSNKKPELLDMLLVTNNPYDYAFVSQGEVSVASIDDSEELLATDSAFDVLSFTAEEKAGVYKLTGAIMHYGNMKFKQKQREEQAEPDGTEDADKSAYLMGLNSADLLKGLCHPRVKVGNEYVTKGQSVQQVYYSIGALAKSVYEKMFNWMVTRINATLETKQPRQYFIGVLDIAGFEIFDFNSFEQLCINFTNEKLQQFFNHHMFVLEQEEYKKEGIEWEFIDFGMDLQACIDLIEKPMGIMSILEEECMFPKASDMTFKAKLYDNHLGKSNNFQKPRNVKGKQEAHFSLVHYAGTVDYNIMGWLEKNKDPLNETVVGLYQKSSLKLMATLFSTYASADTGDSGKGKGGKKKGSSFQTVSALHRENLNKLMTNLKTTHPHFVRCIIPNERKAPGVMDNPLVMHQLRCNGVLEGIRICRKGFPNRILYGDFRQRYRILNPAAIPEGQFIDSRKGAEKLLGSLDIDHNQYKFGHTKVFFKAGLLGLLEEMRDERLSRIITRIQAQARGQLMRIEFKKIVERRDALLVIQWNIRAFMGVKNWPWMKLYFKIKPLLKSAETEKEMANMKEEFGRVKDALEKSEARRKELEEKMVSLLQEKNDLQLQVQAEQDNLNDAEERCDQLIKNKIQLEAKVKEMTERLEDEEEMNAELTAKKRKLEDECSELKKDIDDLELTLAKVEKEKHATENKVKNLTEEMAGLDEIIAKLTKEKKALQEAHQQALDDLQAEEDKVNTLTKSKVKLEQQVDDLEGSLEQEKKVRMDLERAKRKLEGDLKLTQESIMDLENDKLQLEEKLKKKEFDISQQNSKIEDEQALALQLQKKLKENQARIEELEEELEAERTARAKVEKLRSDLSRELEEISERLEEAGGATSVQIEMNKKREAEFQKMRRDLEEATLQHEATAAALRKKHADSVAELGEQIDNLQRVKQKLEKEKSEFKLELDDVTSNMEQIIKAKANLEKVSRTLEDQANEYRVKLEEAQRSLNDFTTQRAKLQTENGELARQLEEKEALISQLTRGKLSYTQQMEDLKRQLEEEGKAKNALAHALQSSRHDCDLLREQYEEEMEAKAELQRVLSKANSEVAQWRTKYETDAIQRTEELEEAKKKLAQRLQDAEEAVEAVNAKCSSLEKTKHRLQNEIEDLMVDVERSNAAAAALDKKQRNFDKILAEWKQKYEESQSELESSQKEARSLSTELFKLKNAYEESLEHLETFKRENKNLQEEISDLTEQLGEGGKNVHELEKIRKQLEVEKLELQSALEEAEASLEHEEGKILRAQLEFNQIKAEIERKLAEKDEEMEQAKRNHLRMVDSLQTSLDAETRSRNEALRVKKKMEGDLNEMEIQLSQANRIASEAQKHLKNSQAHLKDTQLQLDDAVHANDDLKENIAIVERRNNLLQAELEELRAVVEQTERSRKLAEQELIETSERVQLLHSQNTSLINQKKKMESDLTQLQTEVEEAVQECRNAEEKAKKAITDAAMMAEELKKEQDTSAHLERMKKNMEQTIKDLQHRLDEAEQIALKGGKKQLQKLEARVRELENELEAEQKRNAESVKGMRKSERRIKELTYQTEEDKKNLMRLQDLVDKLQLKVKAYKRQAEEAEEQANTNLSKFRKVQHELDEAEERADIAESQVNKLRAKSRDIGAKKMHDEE
As to R266A;R270A;R271A, the “effect of a mutation on the interaction” value was “disrupting interaction strength”.
Turning to K298A;K299A;R300A, the “effect of a mutation on the interaction” value is given as “disrupting interaction strength”.
Consider R279A;R280A;T281A, for which the “effect of a mutation on the interaction” value is on record as “disrupting interaction strength”.
In the case of K298A;K299A, the “effect of a mutation on the interaction” value is “disrupting interaction strength”.

The values above are taken from IntAct's records for PubMed 22982234.
